Measured values taken from patent publication US20180009892A1 (EUREKA THERAPEUTICS, published 2018).

Columns and labels:
human ROR2-ECD = molecular target: T1, human ROR2-ECD (human, UniProt Q01974 34-403); assay: protein ELISA, phage
T1 construct: extracellular domain; also called hROR2

[1] = molecular target: T2, human ROR1 extracellular domain (ECD) protein (human, UniProt Q01973 30-406); assay: competitive phage ELISA: soluble ROR1 against ROR1-coated plate
T2 construct: also called hROR1-ECD; human ROR1-ECD
Procedure: Purified phage antibodies were first diluted serially in PBST buffer, and tested for binding to a ROR1-coated plate. The dilution that gave 50-80% saturating signal was used in the solution binding assay in which phage were first incubated with increasing concentration of ROR1 for one to two hours, and then transferred to a ROR1-coated plate for 10-15 minutes to capture the unbound phage.

T2 sequence (Q01973 30-406 limits assumed): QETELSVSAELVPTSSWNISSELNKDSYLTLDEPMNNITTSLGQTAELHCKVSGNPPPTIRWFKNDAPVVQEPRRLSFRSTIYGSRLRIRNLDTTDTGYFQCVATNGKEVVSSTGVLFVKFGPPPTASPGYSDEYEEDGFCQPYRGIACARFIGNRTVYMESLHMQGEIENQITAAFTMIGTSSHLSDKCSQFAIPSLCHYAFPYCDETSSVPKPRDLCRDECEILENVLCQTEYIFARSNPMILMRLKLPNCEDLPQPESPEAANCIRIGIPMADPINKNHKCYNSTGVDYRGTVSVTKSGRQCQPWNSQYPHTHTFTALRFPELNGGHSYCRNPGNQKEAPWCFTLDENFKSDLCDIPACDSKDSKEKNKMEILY
T1 sequence (Q01974 34-403): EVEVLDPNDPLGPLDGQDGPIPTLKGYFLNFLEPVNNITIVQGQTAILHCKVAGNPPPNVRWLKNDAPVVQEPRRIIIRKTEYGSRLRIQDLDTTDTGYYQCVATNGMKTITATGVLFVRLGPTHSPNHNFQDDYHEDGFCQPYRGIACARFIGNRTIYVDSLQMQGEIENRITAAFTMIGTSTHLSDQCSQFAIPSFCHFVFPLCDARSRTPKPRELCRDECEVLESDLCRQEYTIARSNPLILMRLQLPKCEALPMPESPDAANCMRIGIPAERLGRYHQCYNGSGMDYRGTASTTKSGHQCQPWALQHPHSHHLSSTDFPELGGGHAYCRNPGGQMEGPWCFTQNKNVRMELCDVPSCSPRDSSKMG

Row | Binder | binding result (human ROR2-ECD) | IC50 [1]
1 | P601-13 (scFv, V domains shown) VH: EVQLVQSGAEVKKPGSSVKVSCKASGGTFSTFAINWVRQAPGQGLEWMGGVIPVSGTEDYSQKFQGRLSLTADESTGTAYMELSSLRSDDTAVYYCARDRSGRDWDYFDYWGQGTLVTVSS VL: DIVMTQSPSSLSASVGDRVTITCQASQDISNYLNWYQQKPGKAPKLLIYDASNLETGVPSRFSGSGSGTDFIFTISSLQPEDIATYYCQQFDNLPYTFGQGTKVEIKR | no binding | 1.21 nM
2 | P601-130 (scFv, V domains shown) VH: EVQLVETGGGLVKPGGSLRLSCEASGFSLSSYSMNWVRQAPGKGLEWVSSISSSSTHIYYADSLKGRFTISRDNAKNSLFLQMDNLRAEDTAVYYCARATIGFDYWGQGTLVTVSS VL: QSVLTQPPSVSGAPGQRVTISCTGSSSNIGAGYDVHWYQQLPGTAPKLLIYGNSNRPSGVPDRFSGSKSGTSASLAITGLQAEDEADYYCQSYDSSLSGYVFGTGTKLTVL | no binding | 3.08 nM
3 | P601-2 (scFv, V domains shown) VH: QVTLKESGPTLVKPTQTLTLTCTFSGFSLSSFGVAVGWFRQPPGKALEWLGLIYWDDDKRYSPSLKTRLTITKDTSKNQVVLTMTNMDPVDTATYYCAHKGGIATTGSPNWFDPWGQGTLVTVSS VL: not shown | no binding | –
4 | P601-101 (scFv, V domains shown) VH: EVQLVQSGNEVKRPGASVKVSCKASGHSFSTYGFSWVRQAPGQGLEWMGWISTYNGNTNYAQKLQGRVTMTTDTSTSTAYMELRSLRSDDTAVYYCARDYYSDSSGYWDDAFDIWGQGTLVTVSS VL: not shown | no binding | 1.5 nM
5 | P601-65 (scFv, V domains shown) VH: QVQLQQSGPGLVKPSQTLSLTCAISGDSVSSNSATWNWIRQSPSRGLEWLGRTYYRSKWYNDYAVSVKSRIIINPDTSKNQFSLQLNSVTPEDTAVYYCARGVRAFDIWGQGTTVTVSS VL: QSVLTQPPSVSGTPGQRVTIFCSGGSNNIGRSSVYWYRQAAGTAPKLLIYKTDQRPSGVPDRFAASKSGASASLAISGLRSEDEADYHCATWDDSLSAVVFGGGTKLTVL | no binding | 4.23 nM
6 | P601-40 (scFv, V domains shown) VH: QVQLQQSGAEVKKPGASVKVSCKASGYTSTNYGISWVRQAPGQGLEWMGWISTYNGNTNYAQKLQGRVTMTTDTSTSTAYMELRSLRSDDTAVYYCARDYYSDSSGYWDDAFDIWGQGTMVTVSS VL: DIQLTQSPSSLSASVGDRVTITCRASQNINNYLNWYQQKPGKAPKLLLYAASSLQSGVPSRFSGSGSGTEFTLTISSLHPEDFATYYCQQSYNTPFTFGPGTKVDIKR | no binding | 0.2 nM
7 | P601-137 (scFv, V domains shown) VH: QVQLQQSGAEVKKPGASVKVSCKASGYTFSRYYIHWVRQAPGQGLEWMGIINTDGGTTTYAQKFQGRLTMTRDTSTSTVYMELSSLRSDDTAVYYCARDYGTIDARRFDYWGQGTLVTVSS VL: not shown | no binding | 1.82 nM
8 | P601-136 (scFv, V domains shown) VH: QVQLVQSGAEVKKPGASVKVSCKASGYTFSRYYIHWVRQAPGQGLEWMGLINPGGGSTNYAQKFQGRVTMTRDTSTNTVYLELSSLRSDDTAVYYCARDYGTIDARRFDFWGQGTLVTVSS VL: not shown | no binding | 3.02 nM
9 | P601-66 (scFv, V domains shown) VH: QVQLVQSGAEVKEPGASVKVSCKASGYTFRNSGITWVRQAPGQGLEWMGWINPNSGGAMYVDNFQGRATMTRDTSINTAYMELRSLSSDDTAVYYCARGMADLIDVFDIWGQGTLVTVSS VL: TQPALTQPASVSGSPGQSITISCTGTSSDFGDYDYVSWYQQHPGKAPKLMIYDVSDRPSGVSNRFSGSKSGNTASLTISGLQAEDEADYFCSSFTTSSTLVFGGGTKLTVL | – | 4.05 nM
10 | P601-81 (scFv, V domains shown) VH: EVQLVESGGGVVRPGGSLRLSCATSGFNFDNYGLSWVRQGPGKGLEWMGFIYKSVNTNYSPSLKSRLTISMDTSKNQFSLNLASVTTADTAIYYCARGKVETSVVDYWGQGTLVTVSS VL: NFMLTQPRSVSESPGKTVTISCTGNGGRVANNYVQWYQQRPGSAPTTVIYEDNQRPSGVPARFSGSIDSSSNSASLTISGLKTDDEADYYCQSYDISNQRVFGGGTKLTVL | no binding | 2.76 nM
11 | P601-87 (scFv, V domains shown) VH: QVQLQESGPGLVKSSETLSLTCTVSGGSMNNYYWSWIRQPAGKGLEWMGRIYSSGSTNYNPALKSRVTMSVDTSKNQFSLNLSSVTAADTAIYYCARASWSGTYWALFDYWGQGTLVTVSS VL: ETTLTQSPAFMSATPGDKVNISCKASQDIDDDLNWYQQKPGEAPILIIQEATTLVPGIPPRFSGSGFGTDFTLTINSMQSEDVAYYFCLQHDNFPPTFGQGTKVEIK | no binding | 3.86 nM
12 | P601-112 (scFv, V domains shown) VH: EVQLVQSGGDLVQPGGSLRLSCAASGFTFSSYSMNWVRQAPGKGLEWVSSISSSSSYIYYADSVKGRFTISRDNAKNSLYLQMNSLRAEDTAVYYCARGLGGWTHDAFDIWGQGTTVTVSS VL: QSALTQPASVSGSPGQSITISCTGTSSDVGGYNYVSWYQQHPGKAPKLMIYDVSKRPSGVSNRFSGSKSGNTASLTISGLQAEDEADYYCSSYTGRSTVFGGGTKLTVL | no binding | 2.89 nM
13 | P601-120 (scFv, V domains shown) VH: EVQLVQSGGDLVQPGGSLRLSCAASGFTFSSYSMNWVRQAPGKGLEWVSSISSSSSYIYYADSVKGRFTISRDNAKNSLYLQMNSLRAEDTAVYYCARGLGGWTHDAFDIWGQGTTVTVSS VL: QSALTQPASVSGSPGQSITISCTGTSSDVGGYNYVSWYQQHPGKAPKLMIYDVSNRPSGVSNRFSGSKSGNTASLTISGLQAEDEADYYCSSYTSSSTRVFGGGTKLTVL | no binding | 1.92 nM
14 | P601-109 (scFv, V domains shown) VH: QMQLVQSGGDLVQPGGSLRLSCAASGFTFSSYSMNWVRQAPGKGLEWVSSISSSSSYIYYADSVKGRFTISRDNAKNSLYLQMNSLRAEDTAVYYCARGLGGWTHDAFDIWGQGTTVTVSS VL: QSALTQPASVSGSPGQSITISCTGTSSDVGGYNYVSWYQQHPGKAPKLLIYEVSQRPSGVPDRFSGSKSGNTASLTVSGLQAEDEADYYCSSYAGDRDVFGTGTQLTVLS | no binding | 0.22 nM
15 | P601-110 (scFv, V domains shown) VH: QVQLVQSGGDLVQPGGSLRLSCAASGFTFSSYSMNWVRQAPGKGLEWVSSISSSSSYIYYADSVKGRFTISRDNAKNSLYLQMNSLRAEDTAVYYCARGLGGWTHDAFDIWGQGTTVTVSS VL: QSALTQPASVSGSPGQSITLSCTGTSSDVGGYNYVSWYQQHPGNGPKLIIYDVTKRPSGVSNRFSGSKSGNTAYLTISGLQAEDEADYYCASYTRSTTLVFGGGTKLTVL | no binding | 4.57 nM
16 | P601-103 (scFv, V domains shown) VH: EVQLVQSGGDLVQPGGSLRLSCAASGFTFSSYSMNWVRQAPGKGLEWVSSISSSSSYIYYADSVKGRFTISRDNAKNSLYLQMNSLRAEDTAVYYCARGLGGWTHDAFDIWGQGTTVTVSS VL: QSVLTQPASVSGSPGQSITISCTGTTSDVGGYNYVSWYQQHPGKAPKLMIYDVSKRPSGVSNRFSGSKSGNTASLTISGLQAEDEADYYCSSYTSSSTDVFGTGTKLTVL | no binding | 8.72 nM
17 | P601-153 (scFv, V domains shown, not shown: large carriers; small tags and cut ends) VH: QMQLVQSGAEVKKPGASVKVSCKASGYTFTSYYMHWVRQAPGQGLEWMGIINPSGGSTSYAQKFQGRVTMTRDTSTSTVYMELSSLRSEDTAVYYCARGGYTGWSPSDPWGQGTLVTVSS VL: QSALTQPASVSGSPGQSITISCTGTSSDVGGYNYVSWYQQHPGKAPKFMIYDVSKRPSGVSNRFSGSKSGNTASLTISGLQAEDEADYYCGSFTSSITYVFGTGTKVTVL | – | 1.53 nM
18 | P601-3 (scFv, V domains shown) VH: QVTLKESGPTLVKPTQTLTLTCTFSGFSLNSFGVAVGWFRQPPGKALEWLGLIYWDDDRRYFPSLEGRLSITKDASDNNVVLTMMNVDPADTATYYCARTSPMVQGIANYYAMDVWGQGTTVTVSS VL: not shown | no binding | –
19 | P601-86 (scFv, V domains shown) VH: QVTLKESGPTLLKPTQTLTLTCTFSGFSLSTRGVGVGWIRQPPGQALEWLTLIYWDDDKRYSPSLKSRLTITKDTSKNQVVLTMTNMESVDTATYYCAQQTMTGAFDIWGQGTTVTVSS VL: DIQMTQSPSSVSASVGDRVTITCRASQGISTLLAWYQQKPGKAPKLLISSASSLQSGVPARFSGSGSGTDFTLTISSLQPEDFATYYCQQSYRAPTFGQGTKVEIKR | no binding | 1.84 nM
20 | P601-6 (scFv, V domains shown) VH: EVQLVESGGGLVKPGGSLKLSCAASGFTFSDYYMGWVRQAPGKGLKWLSYISDRAHTIYDTHSVKGRFTISRDDAKSSLYLRMNNLRVEDTAVYYCARAVGAGEGFDYWCQGTLVTVSS VL: DIQMTQSPSSLSASVGDRVTITCQASQDIRNYLNWYQQKPGKAPKLLIYAASNLETGVPSRFSGSGSGTDFTFTISSLQPEDIATYYCQQDDNLPLTFGGGTKLEIK | – | 2.12 nM
21 | P601-5 (scFv, V domains shown) VH: EVQLVESGGGLVKPGGSLRLSCAASGFTFSDYYMGWVRQAPGKGLKWLSYISDRAHTIYDTDSVKGRFTISRDDAKSSLYLRMNNLRVEDTAVYYCARAVGAGEGFDYWGQGTLVTVSS VL: not shown | no binding | –
22 | P601-149 (scFv, V domains shown, not shown: large carriers; small tags and cut ends) VH: EAQLVESGGGLVKPGGSLRLSCAASGFTFSDYYMGWVRQAPGKGLKWLSYISDRAHTIYDTDSVKGRFTISRDDAKSSLYLRMNNLRVEDTAVYYCARAVGAGEGFDYWGQGTLVTVSS VL: DIQLTQSPSSLSASVGDRVTITCQASQDVRNYLNWYQQKPGKAPNLLIYDATNLESGVPSRFSGSGSGTDFTFTISSLQPEDFATYYCQQYDNLPLSFGGGTKVEIK | – | 2.76 nM
